This experiment concerns the target Coxsackievirus A6 (CVA6) strain 54203/HeB/CHN/2012 mature virion (coxsackievirus A6 strain 54203/HeB/CHN/2012).

B1: His-tagged human KRM1 ectodomain (residues A23-G373) (domain or fragment)
chain: APSPGLGPECFTANGADYRGTQNWTALQGGKPCLFWNETFQHPYNTLKYPNGEGGLGEHNYCRNPDGDVSPWCYVAEHEDGVYWKYCEIPACQMPGNLGCYKDHGNPPPLTGTSKTSNKLTIQTCISFCRSQRFKFAGMESGYACFCGNNPDYWKYGEAASTECNSVCFGDHTQPCGGDGRIILFDTLVGACGGNYSAMSSVVYSPDFPDTYATGRVCYWTIRVPGASHIHFSFPLFDIRDSADMVELLDGYTHRVLARFHGRSRPPLSFNVSLDFVILYFFSDRINQAQGFAVLYQAVKEELPQERPAVNQTVAEVITEQANLSVSAARSSKVLYVITTSPSHPPQTVPG
The molecule B1 had a share of A-particles among the particles after incubation of virions with KRM1 ectodomain (1:120, 35 min, room temperature; cryo-EM classification); none in the untreated sample of 69.8%.

The values above are taken from paper PMC12830800.
